Our source for the stoichiometry N values is PMC5105068.

In the experiment the target is soluble γc protein (sγc), recombinant murine (mouse). The experiment in a line: immunoprecipitation and immunoblot, SDS-PAGE under reducing and non-reducing conditions; culture supernatant of sγc expressing 293 T cells immunoprecipitated and immunoblotted with anti-γc ectodomain antibodies; resolved with (+ DTT) or without reduction.

For the substance “soluble γc protein (sγc), recombinant murine (natural protein)”, the stoichiometry N was found to be 2.
